Values quoted from earlier work as cited in US6204360A, “Retro-inverso thymosin alpha 1 hybrids” (USA Universe Bioengineering, Inc., priority 1999, dated 2001).
No end group written: not given here.

Conditions: Rost, Int. J. Clin. Pharmacol. Ther. 37:51, 1999

## thymosin alpha 1 (SDAAVDTSSEITTKDLKEKKEVVEEAEN; ends and bridges not checked; UniProt P06454 2-29, looked up) [TM-alpha1, 28 amino acid acidic peptide purified from thymosin fraction V; immunomodulator]
  half-life in vivo: short half-life in vivo
